We go through 1 molecule from US20090155176A1 (Novartis, published 2009).

This experiment has as its target T1, β2 construct alone (mock) expressed in 293 cells (UniProt P05107 23-769).
T1 construct: whole, on cells; Negative control transfectant; also called mock (β2) transfected cells
The experiment can be described thus: adhesion of transfected 293 cells to plate-bound ICAM-1-Ig.

T1 sequence (P05107 23-769): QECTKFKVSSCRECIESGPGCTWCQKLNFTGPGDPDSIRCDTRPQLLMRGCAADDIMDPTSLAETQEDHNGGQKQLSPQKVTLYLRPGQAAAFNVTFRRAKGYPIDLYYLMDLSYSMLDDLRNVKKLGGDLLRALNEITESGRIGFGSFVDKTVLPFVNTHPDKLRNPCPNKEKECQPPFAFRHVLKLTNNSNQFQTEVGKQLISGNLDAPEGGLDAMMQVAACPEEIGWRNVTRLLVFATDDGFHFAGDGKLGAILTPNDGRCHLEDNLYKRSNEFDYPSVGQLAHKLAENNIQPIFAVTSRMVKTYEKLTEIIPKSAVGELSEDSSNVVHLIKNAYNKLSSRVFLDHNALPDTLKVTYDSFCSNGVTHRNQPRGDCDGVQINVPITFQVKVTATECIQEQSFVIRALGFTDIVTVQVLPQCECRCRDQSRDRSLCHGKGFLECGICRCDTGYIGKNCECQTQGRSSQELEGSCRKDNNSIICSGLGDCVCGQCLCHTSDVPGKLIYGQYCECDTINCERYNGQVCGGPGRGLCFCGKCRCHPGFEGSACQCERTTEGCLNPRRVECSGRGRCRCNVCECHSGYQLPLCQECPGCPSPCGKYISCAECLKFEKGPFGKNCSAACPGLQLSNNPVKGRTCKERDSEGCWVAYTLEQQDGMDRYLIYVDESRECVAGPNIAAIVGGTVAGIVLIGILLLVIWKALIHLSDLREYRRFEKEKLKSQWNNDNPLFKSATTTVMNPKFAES

B1: ICAM-1-Ig (Fc fusion, UniProt P05362 28-480, looked up)
chain: QTSVSPSKVILPRGGSVLVTCSTSCDQPKLLGIETPLPKKELLLPGNNRKVYELSNVQEDSQPMCYSNCPDGQSTAKTFLTVYWTPERVELAPLPSWQPVGKNLTLRCQVEGGAPRANLTVVLLRGEKELKREPAVGEPAEVTTTVLVRRDHHGANFSCRTELDLRPQGLELFENTSAPYQLQTFVLPATPPQLVSPRVLEVDTQGTVVCSLDGLFPVSEAQVHLALGDQRLNPTVTYGNDSFSAKASVSVTAEDEGTQRLTCAVILGNQSQETLQTVTIYSFPAPNVILTKPEVSEGTEVTVKCEAHPRAKVTLNGVPAQPLGPRAQLLLKATPEDNGRSFSCSATLEVAGQLIHKNQTRELRVLYGPRLDERDCPGNWTWPENSQQTPMCQAWGNPLPELKCLKDGTFPLPIGESVTVTRDLEGTYLCRARSTQGEVTRKVTVNVLSPRYE
notes: not shown: Ig portion
On to B1, for which the binding result is recorded as “no binding”.
